Data on three molecules can be found in patent publication US20080286311A1.

Assay [1] concerns the target basophils from house dust mite allergic patients.
Assay [2] concerns the target basophils (granulocytes) from Phl p 12-allergic patients.
Assay [3] has as its target serum IgE of profilin-sensitised (Phl p 12-allergic) patients. Description: fluid phase inhibition: sera of six patients preincubated with 10 µg MP12, then ELISA on plate-bound Phl p 12.
Assay [4] has the same target. Description: fluid phase inhibition: sera of six patients preincubated with 10 µg Phl p 12, then ELISA on plate-bound Phl p 12.

“rDer p 2 hybrid (aa 54-129+1-53) (from UniProt P49278)” came in with a CD 203c expression on basophils in assay [1] of 10 fold reduced.

B1: MP12 (reshuffled Phl p 12 derivative) (protein)
chain: MEPGAVIRGKKGAGGITIKKTGQALVGIYDEPMTPGQCNMVVERLGDYLVEQGMMSWQTYVDEHLMCEIEGHHLASAAILGHDGTVWAQSADFPQFKPEEITGIMKDFDEPGHLAPTGMFVAGAKYMVIQGHHHHHH
In assay [2], B1 returned a histamine release (fold reduction) of 1000. Further, the mean % inhibition of IgE binding to Phl p 12 in assay [3] came to 31.2%.

B2: Phl p 12 wild-type (timothy grass pollen profilin) (protein)
chain: MSWQTYVDEHLMCEIEGHHLASAAILGHDGTVWAQSADFPQFKPEEITGIMKDFDEPGHLAPTGMFVAGAKYMVIQGEPGAVIRGKKGAGGITIKKTGQALVVGIYDEPMTPGQCNMVVERLGDYLVEQGM
In the case of B2, the mean % inhibition of IgE binding to Phl p 12 in assay [4] turned out to be 86%.
